Measurements: US20040018603
Positions count from the first letter of the chain named. In names and notes the source's numbering stands. Several values for one entry are separate records, joined by “and”; a condition that tells them apart may be missing. Equal values may be shown once.

Tests used:
[1] = target: GST-Cdc25[254-316]-WT (62-amino acid region of Xenopus Cdc25 fused to glutathione S-transferase)

B1: His6-Xcds1 (histidine-tagged Xcds1 purified from E. coli) (protein)
chain: MMSRDTKTESQQSQGTSSSSSSSAPQSYSQSSSSGTLSSLDTVPVQDLASIPEDPEIDEDIPQPWGRLWALGKGFLNHDCLHEEYVFGRDKKCDYTFDIPVLNQTDRYKTYSKRHFRIFQELGHGHSRVANIEDLSGNGTFVNKEIIGKGRTLPLTNNAEIALSLPTNKVFVFSDLSVDDQTIYPKDFIDKYIMSRPIGSGACGEVKLAFQKSVCKKVAVKIISKRKFKMNTSSNEHPISVDTEIEILKKLDHPCIIKIENFFDSEDFYYIVLELMEGGELFDRVVNSTRLREPIAKLYFYQMLLAVQYLHENGVIHRDLKPENVLLSSTSEECCIKITDFGQSKILGETSLMRTLCGTPTYLAPEVLNTAGTTGYSSAVDCWSLGVILFVCLCGYPPFSEQNSNIPLKNQIAEGKYTYIAAAWRNVSEQAFDLVKNLLVVDPEQRLTTKQALEHPWLQDDSMKHTVERLMYGVDHTMPPPIKKNIIRKRGHEWDQDASTSSCSEILPTSAEKRAKR
- phosphorylation in kinase assay with 32P-ATP (SDS-PAGE, PhosphorImager) (GST-Cdc25[254-316]-S287A): a serine-to-alanine mutation at this position abolished the phosphorylation
- phosphorylation in kinase assay with 32P-ATP (SDS-PAGE, PhosphorImager) [1]: His6-Xcds1, but not a catalytically inactive mutant (His6-Xcds1-N324A), phosphorylated a 62-amino acid region of Xenopus Cdc25 fused to glutathione S-transferase (GST-Cdc25[254-316]-WT)

B2: His6-Xcds1-N324A (catalytically inactive mutant) (protein)
chain: B1 chain with N324A
- phosphorylation in kinase assay with 32P-ATP (SDS-PAGE, PhosphorImager) [1]: but not a catalytically inactive mutant (His6-Xcds1-N324A)

B3: Hyperphosphorylated Xcds1 protein immunoprecipitated from egg extracts containing poly(dT)40 (protein)
chain: B1 chain
- kinase activity of the immunoprecipitate, increase over background [1]: 5 fold and 6 fold

B4: Xenopus laevis protein kinase Cds1 (Xcds1), endogenous protein in Xenopus egg extracts (protein)
chain: B1 chain
- kinase activity of the immunoprecipitate [1]: endogenous Xcds1 immunoprecipitated from egg extracts phosphorylated this substrate well
